Assay [1] has as its target T1, purified p32 protein.
T1 chain: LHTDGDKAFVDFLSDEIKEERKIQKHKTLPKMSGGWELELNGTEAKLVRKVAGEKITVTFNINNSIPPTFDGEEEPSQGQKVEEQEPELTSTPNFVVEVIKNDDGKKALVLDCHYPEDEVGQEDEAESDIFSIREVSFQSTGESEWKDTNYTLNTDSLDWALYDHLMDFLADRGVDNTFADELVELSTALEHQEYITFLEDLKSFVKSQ
Nature of the assay: comparison of the filing's CGKRK-p32 affinity with a literature value for LyP-1.

For assay [2], the target named is T1, purified p32 protein. Nature of the assay: saturation binding, ELISA-type: biotin-CGKRK on immobilized purified p32, streptavidin-HRP (FIG. 19).
Assay [3] has as its target T2, p32 protein from mouse liver mitochondria extracts (mouse, UniProt O35658 71-278).
T2 construct: Endogenous protein pulled down from detergent lysate of Balb/c mouse liver mitochondria; also called C1qBP; specific band below 36-kDa
T2 sequence (looked up): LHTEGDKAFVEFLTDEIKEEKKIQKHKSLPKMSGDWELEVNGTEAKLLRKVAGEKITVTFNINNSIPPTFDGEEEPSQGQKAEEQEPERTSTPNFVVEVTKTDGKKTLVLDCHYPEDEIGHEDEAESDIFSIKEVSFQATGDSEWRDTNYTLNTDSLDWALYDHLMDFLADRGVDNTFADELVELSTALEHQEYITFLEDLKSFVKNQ
Nature of the assay: pull-down from mitochondria extracts, mass spectrometry. The method, then:
Affinity chromatography. […] Gel bands excised from silver-stained gels were analyzed by MALDI-TOF mass spectrometry at the Burnham Institute for Medical Research Proteomics Resource.

No end group written: not given here. *: point of attachment. Biotin = O=C1N[C@H]2[C@H](CS[C@H]2CCCCC(=O)*)N1

B1: biotin-labeled CGKRK peptide (peptide)
peptide: Biotin-CGKRK
notes: Labeled form used in the ELISA-type assays on p32-coated wells, detected with streptavidin-HRP; also called biotin-CGKRK; biotin CGKRK
Regarding B1, in assay [1], the “fold affinity relative to LyP-1” value was 15 fold. In assay [2], this molecule displayed a Kd of 0.2 µg/mL.

B2: CGKRK peptide (peptide)
peptide: CGKRK
notes: Synthetic pentapeptide; also called Cys-Gly-Lys-Arg-Lys; non-labeled CGKRK
For the molecule B2, the binding result in assay [3] was “binds”.

Source of the values: US20110262347A1 (SALK INSTITUTE FOR BIOLOGICAL STUDIES, published 2011).
